This note sets out measurements from patent US20220177560A1.

Assay [1] has as its target HU-3pE-beta-Amyloid (human). Nature of the assay: SPR; HU-3pE-beta-Amyloid 0.6 to 4.5 nM. For orientation: Surface plasmon resonance follows binding to a sensor surface in real time, without labels.
In assay [2] the target is cynomolgus FcRn (cynomolgus) (UniProt Q8SPV9). Kind of assay: FcRn binding affinity; method not described; average of 5-6 replicates.
The target in a further assay is human FcRn (human) (UniProt P55899). The assay is described as above.
Chain of human FcRn (human) (P55899 24-297 limits assumed, chain 1 of 2): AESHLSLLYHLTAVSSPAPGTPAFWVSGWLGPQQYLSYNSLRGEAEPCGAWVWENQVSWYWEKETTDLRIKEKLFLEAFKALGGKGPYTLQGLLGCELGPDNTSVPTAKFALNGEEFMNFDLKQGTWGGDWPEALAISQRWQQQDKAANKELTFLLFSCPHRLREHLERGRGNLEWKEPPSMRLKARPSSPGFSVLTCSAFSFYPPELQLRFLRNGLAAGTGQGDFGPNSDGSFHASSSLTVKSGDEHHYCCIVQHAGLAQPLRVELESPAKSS
Chain of human FcRn (human) (P61769 21-119 limits assumed, chain 2 of 2, further chain): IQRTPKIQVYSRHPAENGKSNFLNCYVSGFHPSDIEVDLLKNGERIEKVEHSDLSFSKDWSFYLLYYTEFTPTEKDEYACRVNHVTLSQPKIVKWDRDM

The Kd is a measure of binding affinity in units of concentration. A low value points to higher affinity. In general, koff refers to the first-order rate constant of dissociation. A low value points to slow dissociation. For orientation: kon means the rate constant with which the complex forms. Read a high kon as faster complex formation.

Chain of cynomolgus FcRn (cynomolgus) (Q8SPV9 24-297 limits assumed, chain 1 of 2): as the sequence (P55899 24-297 limits assumed, chain 1 of 2) above, with N39D, E44Q, G99S, S189G, S190N, L217M, S269T counted along it
Chain of cynomolgus FcRn (cynomolgus) (Q8SPW0 21-119 limits assumed, chain 2 of 2, further chain): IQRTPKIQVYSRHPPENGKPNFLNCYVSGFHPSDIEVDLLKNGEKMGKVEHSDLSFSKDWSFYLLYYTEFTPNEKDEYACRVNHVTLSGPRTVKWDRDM

In assay [1], Control mAb (antibody) had a Kd of 0.0379 nM, a koff of 0.000156 s⁻¹ and an on-rate (kon) of 4.11e+06 M⁻¹ s⁻¹.

Turning to IgG1 control (antibody), the dissociation constant Kd came to 430 nM in assay [2] and 443 nM with human FcRn (human).
